Experiment [1] addresses HIV-1 Tat protein (recombinant, native, biologically active) (HIV-1) (UniProt Q73370). Put plainly: ELISA; wells coated with native Tat, antibody used for detection. (ELISA stands for enzyme-linked immunosorbent assay.)
Experiment [2] has the same target. The experiment can be described thus: ELISA; plate coated with Tat, antibody used for detection.
The target of a further experiment is oxidised Tat (HIV-1) (UniProt Q73370). Put plainly: ELISA; wells coated with oxidised Tat, antibody used for detection.
The target in experiment [3] is Tat-cys22 (transactivation mutant, cysteine 22 substituted by glycine) (HIV-1). Put plainly: ELISA; wells coated with Tat-cys22, antibody used for detection.
Experiment [4] addresses Tat (83-102) peptide (C-terminal domain) (HIV-1). The experiment can be described thus: ELISA; plate coated with Tat peptide, antibody used for detection.
Experiment [5] concerns the target Tat (21-58) peptide (cysteine, core, and basic regions) (HIV-1). The experiment is described as above.
Experiment [6] deals with Tat (1-20) peptide (N-terminal domain) (HIV-1). The experiment is described as above.
The target of experiment [7] is Tat (65-80) peptide (RGD sequence) (HIV-1). The description is as above.
In experiment [8] the target is Tat (56-70) peptide (glutamine-rich region) (HIV-1). The description is as above.
The target in experiment [9] is Tat (46-60) peptide (basic region-nuclear localisation signal) (HIV-1). Described as above.
Experiment [10] concerns the target Tat (73-86) peptide (HIV-1). The description is as above.
Experiment [11] concerns the target Tat (36-50) peptide (core region) (HIV-1). The experiment is described as above.
Experiment [12] deals with Tat (21-40) peptide (cysteine-rich region-transactivation domain) (HIV-1). Described as above.
For experiment [13], the target named is bovine serum albumin (bovine) (UniProt P02769). Put plainly: ELISA; uncoated (BSA-blocked) well incubated with Tat, detected with anti-Tat.
Sequence of bovine serum albumin (bovine) (P02769 25-607 limits assumed): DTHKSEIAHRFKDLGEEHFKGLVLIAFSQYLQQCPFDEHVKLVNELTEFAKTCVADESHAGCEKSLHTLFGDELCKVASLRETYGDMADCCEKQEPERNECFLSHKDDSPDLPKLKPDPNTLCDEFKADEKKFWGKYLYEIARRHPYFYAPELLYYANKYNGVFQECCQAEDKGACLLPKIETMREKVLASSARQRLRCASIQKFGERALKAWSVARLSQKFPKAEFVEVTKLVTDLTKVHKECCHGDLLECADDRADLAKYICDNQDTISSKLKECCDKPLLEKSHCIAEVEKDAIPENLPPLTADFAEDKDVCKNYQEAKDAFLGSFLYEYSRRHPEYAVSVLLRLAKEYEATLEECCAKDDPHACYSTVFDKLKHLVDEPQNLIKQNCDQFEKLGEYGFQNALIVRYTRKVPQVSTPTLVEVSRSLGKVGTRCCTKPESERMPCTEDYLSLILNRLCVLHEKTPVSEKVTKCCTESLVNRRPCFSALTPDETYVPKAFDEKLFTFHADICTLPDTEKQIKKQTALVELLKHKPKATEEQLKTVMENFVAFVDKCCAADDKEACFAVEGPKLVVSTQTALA

On to CTR isot. (isotype control antibody), for which the ELISA signal in experiment [1] came to 0.051; in experiment [2], 0.081; with oxidised Tat (HIV-1) it was 0.016; in [3], 0.026; in [4], 0; in experiment [5] it was 0.108. Further, the ELISA signal in [6] came out at 0.006; in [7] it was 0; in experiment [8], 0; in experiment [9], 0.063; in experiment [10] it was 0.019; in experiment [11], 0. In [12], the ELISA signal stood at 0.082.

“HIV-1 Tat protein (recombinant, native, biologically active) (from UniProt Q73370 1-100)” returned an ELISA OD in experiment [13] of 0.431 OD.

With “monoclonal anti-CCR5 antibody (Pharmingen), directed against the CCR5 second extracellular loop”, the ELISA signal in [1] stood at 1.24; in [2], 1.45; with oxidised Tat (HIV-1) it was 0.128; in experiment [3], 0.75; in experiment [4] it was 0; in experiment [5], 3. The ELISA signal in [6] stood at 0; in experiment [7], 0; in [8] it was 0.147; in experiment [9], 0.466; in experiment [10], 0; in experiment [11] it was 0. Also, in [12], the ELISA signal is 0.

For the origin of these results see patent publication US9969780.
